B1: Monoclonal Antibody 3 (MAb3) (antibody, V domains shown)
VH: QVKLEESGGGLVKPGGSLKLSCAASGFSFSRNVMSWVRQTPEKRLEWVATISAGGSYTYYPDSVKGRFTISRDNAKNTLYLQMSSLRSEDTAMYYCARLNYNDNGNYFDYWGQGTTLTVSS
VL: DIVMTQSTAIMSASLGEKVTMSCRASSSVVYMYWYQQKSDASPKLWIYYTSNLAPGVPARFSGSGSGNSYSLTISSMEGEDAATYYCQQFTSSPYTFGGGTKLEIKR
B2: humanized antibody T14 (antibody, V domains shown)
VH: EVQLVESGGGLVQPGRSLRLSCAASGFTFSDYYMAWVRQAPGKGLEWVASISYEGSNTNFGDSVKGRFTISRDSSKNTLYLKMNSLRAEDTAVYYCARWAQTGYYFDYWGQGTLVTVSS
VL: DIQMTQSPSSLSASVGDRVTITCLASEDIYSNLAWYQQKPGKSPKLLIYYANSLNDGVPSRFSGSGSGTDFTLTISRLQPEDFATYYCQQNYDSPYTFGQGTKVEIKR
notes: also called humanized MAb1 (H5/L2)
B3: humanized antibody T21 (antibody)
heavy: not shown
light: DIQMTQSPSSLSASVGDRVTITCLASEDIYSNLAWYQQKPGKAPKLLIYYANSLNDGVPSRFSGSGSGTDFTLTISRLQPEDFATYYCQQNYDSPYTFGQGTKVEIKRTVAAPSVFIFPPSDEQLKSGTASVVCLLNNFYPREAKVQWKVDNALQSGNSQESVTEQDSKDSTYSLSSTLTLSKADYEKHKVYACEVTHQGLSSPVTKSFNRGEC
notes: also called humanized MAb1 (H10/L1)
B4: humanized antibody T3 (antibody, V domains shown)
VH: EVQLVESGGGLVQPGRSLRLSCAASGFTFSDYYMAWVRQAPGKGLEWVSSISYEGSNTNFGDSVKGRFTISRDNSKNTLYLKMNSLRAEDTAVYYCARWAQTGYYFDYWGQGTLVTVSS
VL: DIQMTQSPSSLSASVGDRVTITCLASEDIYSNLAWYQQKPGKSPQLLIYYANSLNDGVPSRFSGSGSGTDFTLTISRLQPEDFATYFCQQNYDSPYTFGQGTKVEIKR
notes: also called humanized MAb1 (H1/L3)
B5: humanized antibody T2 (antibody, V domains shown)
VH: EVQLVESGGGLVQPGRSLRLSCAASGFTFSDYYMAWVRQAPGKGLEWVSSISYEGSNTNFGDSVKGRFTISRDNSKNTLYLKMNSLRAEDTAVYYCARWAQTGYYFDYWGQGTLVTVSS
VL: DIQMTQSPSSLSASVGDRVTITCLASEDIYSNLAWYQQKPGKSPKLLIYYANSLNDGVPSRFSGSGSGTDFTLTISRLQPEDFATYYCQQNYDSPYTFGQGTKVEIKR
notes: also called humanized MAb1 (H1/L2)
B6: humanized antibody T9 (antibody, V domains shown)
VH: EVQLVESGGGLVQPGRSLRLSCAGSGFTFSDYYMAWVRQAPGKGLEWVASISYEGSNTNFGDSVKGRFTISRDSSKNTLYLKMNSLRAEDTAVYYCARWAQTGYYFDYWGQGTLVTVSS
VL: DIQMTQSPSSLSASVGDRVTITCLASEDIYSNLAWYQQKPGKSPKLLIYYANSLNDGVPSRFSGSGSGTDFTLTISRLQPEDFATYYCQQNYDSPYTFGQGTKVEIKR
notes: also called humanized MAb1 (H3/L2)
B7: humanized antibody T8 (antibody, V domains shown)
VH: EVQLVESGGGLVQPGRSLRLSCAGSGFTFSDYYMAWVRQAPGKGLEWVASISYEGSNTNFGDSVKGRFTISRDSSKNTLYLKMNSLRAEDTAVYYCARWAQTGYYFDYWGQGTLVTVSS
VL: DIQMTQSPSSLSASVGDRVTITCLASEDIYSNLAWYQQKPGKAPKLLIYYANSLNDGVPSRFSGSGSGTDFTLTISRLQPEDFATYYCQQNYDSPYTFGQGTKVEIKR
notes: also called humanized MAb1 (H3/L1)
B8: humanized antibody T18 (antibody, V domains shown)
VH: EVQLVESGGGLVQPGRSLRLSCAGSGFTFSDYYMAWVRQAPGKGLEWVASISYEGSNTNFGDSVKGRFTISRDSSKNTLYLQMNSLRAEDTAVYYCARWAQTGYYFDYWGQGTLVTVSS
VL: DIQMTQSPSSLSASVGDRVTITCLASEDIYSNLAWYQQKPGKSPKLLIYYANSLNDGVPSRFSGSGSGTDFTLTISRLQPEDFATYYCQQNYDSPYTFGQGTKVEIKR
notes: also called humanized MAb1 (H7/L2)
B9: humanized antibody T19 (antibody)
heavy: not shown
light: DIQMTQSPSSLSASVGDRVTITCLASEDIYSNLAWYQQKPGKAPKLLIYYANSLNDGVPSRFSGSGSGTDFTLTISRLQPEDFATYYCQQNYDSPYTFGQGTKVEIKRTVAAPSVFIFPPSDEQLKSGTASVVCLLNNFYPREAKVQWKVDNALQSGNSQESVTEQDSKDSTYSLSSTLTLSKADYEKHKVYACEVTHQGLSSPVTKSFNRGEC
notes: also called humanized MAb1 (H8/L1)
B10: humanized antibody T10 (antibody, V domains shown)
VH: EVQLVESGGGLVQPGRSLRLSCAGSGFTFSDYYMAWVRQAPGKGLEWVASISYEGSNTNFGDSVKGRFTISRDSSKNTLYLKMNSLRAEDTAVYYCARWAQTGYYFDYWGQGTLVTVSS
VL: DIQMTQSPSSLSASVGDRVTITCLASEDIYSNLAWYQQKPGKSPQLLIYYANSLNDGVPSRFSGSGSGTDFTLTISRLQPEDFATYFCQQNYDSPYTFGQGTKVEIKR
notes: also called humanized MAb1 (H3/L3)
B11: humanized antibody T15 (antibody, V domains shown)
VH: EVQLVESGGGLVQPGRSLRLSCAASGFTFSDYYMAWVRQAPGKGLEWVASISYEGSNTNFGDSVKGRFTISRDSSKNTLYLKMNSLRAEDTAVYYCARWAQTGYYFDYWGQGTLVTVSS
VL: DIQMTQSPSSLSASVGDRVTITCLASEDIYSNLAWYQQKPGKSPKLLIYYANSLNDGVPSRFSGSGSGTDFTLTISSLQPEDFATYYCQQNYDSPYTFGQGTKVEIKR
notes: also called humanized MAb1 (H5/L5)
B12: humanized antibody T4 (antibody, V domains shown)
VH: EVQLVESGGGLVQPGRSLRLSCAASGFTFSDYYMAWVRQAPGKGLEWVASISYEGSNTNFGDSVKGRFTISRDNSKNTLYLKMNSLRAEDTAVYYCARWAQTGYYFDYWGQGTLVTVSS
VL: DIQMTQSPSSLSASVGDRVTITCLASEDIYSNLAWYQQKPGKAPKLLIYYANSLNDGVPSRFSGSGSGTDFTLTISRLQPEDFATYYCQQNYDSPYTFGQGTKVEIKR
notes: also called humanized MAb1 (H2/L1)
B13: humanized antibody T12 (antibody, V domains shown)
VH: EVQLVESGGGLVQPGRSLRLSCAGSGFTFSDYYMAWVRQAPGKGLEWVASISYEGSNTNFGDSVKGRFTISRDSAKNTLYLKMNSLRAEDTAVYYCARWAQTGYYFDYWGQGTLVTVSS
VL: DIQMTQSPSSLSASVGDRVTITCLASEDIYSNLAWYQQKPGKSPQLLIYYANSLNDGVPSRFSGSGSGTDFTLTISRLQPEDFATYFCQQNYDSPYTFGQGTKLEIKR
notes: also called humanized MAb1 (H4/L4)
B14: humanized antibody T6 (antibody, V domains shown)
VH: EVQLVESGGGLVQPGRSLRLSCAASGFTFSDYYMAWVRQAPGKGLEWVASISYEGSNTNFGDSVKGRFTISRDNSKNTLYLKMNSLRAEDTAVYYCARWAQTGYYFDYWGQGTLVTVSS
VL: DIQMTQSPSSLSASVGDRVTITCLASEDIYSNLAWYQQKPGKSPQLLIYYANSLNDGVPSRFSGSGSGTDFTLTISRLQPEDFATYFCQQNYDSPYTFGQGTKVEIKR
notes: also called humanized MAb1 (H2/L3)
B15: humanized antibody T17 (antibody, V domains shown)
VH: EVQLVESGGGLVQPGRSLRLSCAGSGFTFSDYYMAWVRQAPGKGLEWVASISYEGSNTNFGDSVKGRFTISRDNSKNTLYLKMNSLRAEDTAVYYCARWAQTGYYFDYWGQGTLVTVSS
VL: DIQMTQSPSSLSASVGDRVTITCLASEDIYSNLAWYQQKPGKSPKLLIYYANSLNDGVPSRFSGSGSGTDFTLTISSLQPEDFATYYCQQNYDSPYTFGQGTKVEIKR
notes: also called humanized MAb1 (H6/L5)
B16: humanized antibody T16 (antibody, V domains shown)
VH: EVQLVESGGGLVQPGRSLRLSCAGSGFTFSDYYMAWVRQAPGKGLEWVASISYEGSNTNFGDSVKGRFTISRDNSKNTLYLKMNSLRAEDTAVYYCARWAQTGYYFDYWGQGTLVTVSS
VL: DIQMTQSPSSLSASVGDRVTITCLASEDIYSNLAWYQQKPGKSPKLLIYYANSLNDGVPSRFSGSGSGTDFTLTISRLQPEDFATYYCQQNYDSPYTFGQGTKVEIKR
notes: also called humanized MAb1 (H6/L2)
B17: humanized antibody T11 (antibody, V domains shown)
VH: EVQLVESGGGLVQPGRSLRLSCAGSGFTFSDYYMAWVRQAPGKGLEWVASISYEGSNTNFGDSVKGRFTISRDSSKNTLYLKMNSLRAEDTAVYYCARWAQTGYYFDYWGQGTLVTVSS
VL: DIQMTQSPSSLSASVGDRVTITCLASEDIYSNLAWYQQKPGKSPKLLIYYANSLNDGVPSRFSGSGSGTDFTLTISSLQPEDFATYYCQQNYDSPYTFGQGTKVEIKR
notes: also called humanized MAb1 (H3/L5)
B18: humanized antibody T1 (antibody, V domains shown)
VH: EVQLVESGGGLVQPGRSLRLSCAASGFTFSDYYMAWVRQAPGKGLEWVSSISYEGSNTNFGDSVKGRFTISRDNSKNTLYLKMNSLRAEDTAVYYCARWAQTGYYFDYWGQGTLVTVSS
VL: DIQMTQSPSSLSASVGDRVTITCLASEDIYSNLAWYQQKPGKAPKLLIYYANSLNDGVPSRFSGSGSGTDFTLTISRLQPEDFATYYCQQNYDSPYTFGQGTKVEIKR
notes: also called humanized MAb1 (H1/L1)
B19: Monoclonal Antibody 1 (MAb1) (antibody)
heavy: EVQLVESGGGLVQPGRSLKLSCVGSGFTFSDYYMAWVRQAPKKGLEWVASISYEGSNTNFGDSVKGRFTISRDSAKSTLYLQMNSLRSEDTATYYCARWAQTGYYFDYWGQGVMVTVSSAETTAPSVYPLAPGTALKSNSMVTLGCLVKGYFPEPVTVTWNSGALSSGVHTFPAVLQSGLYTLTSSVTVPSSTWSSQAVTCNVAHPASSTKVDKKIVPRECNPCGCTGSEVSSVFIFPPKTKDVLTITLTPKVTCVVVDISQNDPEVRFSWFIDDVEVHTAQTHAPEKQSNSTLRSVSELPIVHRDWLNGKTFKCKVNSGAFPAPIEKSISKPEGTPRGPQVYTMAPPKEEMTQSQVSITCMVKGFYPPDIYTEWKMNGQPQENYKNTPPTMDTDGSYFLYSKLNVKKETWQQGNTFTCSVLHEGLHNHHTEKSLSHSPGK
light: DIQMTQSPASLSASLGETVTIECLASEDIYSNLAWYQQKPGKSPQLLIYYANSLNDGVPSRFSGSGSGTQFSLKINSLQSEDVSIYFCQQNYDSPYTFGAGAKLELKRADAAPTVSIFPPSTKQLATGGASVVCLMNNFYPRDISVKWKIDGTERRDGVLDSVTDQDSKDSTYSMSSTLSLTKADYESHNLYTCEVVHKTSSSPVVKSFNRNEC
notes: also called rat antibody MAb1; recombinant MAb1

Columns and labels:
[1] = target: T1, RX protein purified from the culture supernatant of ADSF cells (murine mammary tumor virus (MMTV) …, UniProt P03374 99-474; P03374 475-651); assay: SPR (ProteOn XPR36), antibody immobilised by amine coupling on a GLM chip, purified RX protein as analyte
T1 construct: also called purified RX protein; ADSF cell-derived RX protein
Source text: (§1) Each antibody was immobilized on a sensor chip (Sensor Chip GLM; Bio-Rad Laboratories, Inc.) by the amine coupling method. The chip was blocked by the addition of 1 M ethanolamine hydrochloride (pH 8.5). ProteOn PBS/Tween, pH 7.4 (PBS, pH 7.4, 0.005% Tween 20) was used as a running buffer solution. The purified RX protein was serially diluted and interacted as an analyte with the immobilized monoclonal antibody to determine the binding affinity. The association rate constant ka and the dissociation rate constant kd were calculated by kinetics analysis using ProteOn Manager™.

[2] = target: T1, RX protein purified from the culture …; assay: SPR (ProteOn XPR36), antibody immobilized by amine coupling, RX protein as analyte
Source text: as §1

[3] = target: T1, RX protein purified from the culture …; assay: SPR (ProteOn XPR36), humanized MAb1 captured on immobilised Protein A/G, RX protein as analyte
Procedure: Specifically, a Protein A-Protein G fusion protein Protein A/G (Thermo Fisher Scientific K.K.) was immobilized on the GLM sensor chip of ProteOn XPR36 (Bio-Rad Laboratories, Inc.) by the amine coupling method. […] The dissociation constant, i.e., binding affinity, was calculated from the ratio therebetween.

| Binder | Kd [3] | further results |
| --- | --- | --- |
| B1 |  | Kd [1]: 0.62 nM; koff [1]: 0.0017 s⁻¹; kon [1]: 2.8e+06 M⁻¹ s⁻¹; Kd [2]: ~0.1 nM |
| B2 | 0.19 nM |  |
| B3 | 0.42 nM |  |
| B4 | 2.5 nM |  |
| B5 | 1.9 nM |  |
| B6 | 0.25 nM |  |
| B7 | 0.17 nM |  |
| B8 | 0.22 nM |  |
| B9 | 0.69 nM |  |
| B10 | 0.47 nM |  |
| B11 | 0.26 nM |  |
| B12 | 2 nM |  |
| B13 | 0.32 nM |  |
| B14 | 2 nM |  |
| B15 | 2 nM |  |
| B16 | 1.9 nM |  |
| B17 | 0.37 nM |  |
| B18 | 2.5 nM |  |
| B19 |  | Kd [1]: 0.16 nM; Kd [2]: ~0.1 nM |
